Measured values reported in patent publication US20230243070A1 (Molecular Partners, published 2023).
Where two headings read alike, the source gives them in different places.

B1: DARPin® protein #21 (designed binder)
chain: MRGSHHHHHHGSDLGKKLLQAARAGQLDEVRELLKAGADVNAKDLIGVTPLHLAAFSGHLEIVEVLLKASADVNAKDVSGRTPLHVAAKHGHLEIVEVLLKAGADVNAKDLIGFTPLHLAAQFGHLEIVEVLLKAGADVNAQDKSGKTPADLAARAGHQDIAEVLQKAA
B2: BP DARPin® protein #21/#22 (designed binder)
chain: GSDLGKKLLQAARAGQLDEVRELLKAGADVNAKDLIGVTPLHLAAFSGHLEIVEVLLKASADVNAKDVSGRTPLHVAAKHGHLEIVEVLLKAGADVNAKDLIGFTPLHLAAQFGHLEIVEVLLKAGADVNAQDKSGKTPADLAARAGHQDIAEVLQKAAGSPTPTPTTPTPTPTTPTPTPTGSDLGKKLLQAARAGQLDEVRELLKAGADVNAKDAIGFTPLHLAAFSGHLEIVEVLLKAGADVNAKDVAGYTPLHVAALYGHLVIVEVLLKAGADVNAKDKAGETPLHLAAFAGHLEIVEVLLKAGADVNAQDKSGKTPADLAARAGHQDIAEVLQKAA

Assays:
[1] = biological target: T1, NYESOpMHC on T2 cells pulsed with NY-ESO-1-9V (157-165) peptide
[2] = biological target: T2, NYESOpMHC (HLA-A*0201:NYESO1-9V), biotinylated recombinant complex (human)
[3] = biological target: T3, EBNApMHC (HLA-A*0201:EBNA-1), biotinylated recombinant complex (human; Epstein Barr virus)
[4] = biological target: T3, EBNApMHC (HLA-A*0201:EBNA-1), …; experiment: SPR (ProteOn), biotinylated EBNApMHC on the chip
[5] = biological target: T2, NYESOpMHC (HLA-A*0201:NYESO1-9V), …; experiment: SPR (ProteOn), biotinylated pMHC on NLC chip, PBS with Tween
[6] = biological target: T4, NYESOAApMHC (HLA-A*0201:NYESO1-9VAA), biotinylated recombinant complex (human); experiment: SPR (ProteOn), biotinylated NYESOAApMHC on the chip
[7] = biological target: T4, NYESOAApMHC (HLA-A*0201:NYESO1-9VAA), …
[8] = biological target: T1, NYESOpMHC on T2 cells pulsed with …; experiment: flow cytometry on T2 cells pulsed with NY-ESO-1-9V (157-165) peptide

| Binder | EC50 [1] [µM] | koff [2] [s⁻¹] | kon [2] [M⁻¹ s⁻¹] | KD (fit header over a trace without response) [3] [µM] | Ka (fit header over a trace without response) [3] [M⁻¹ s⁻¹] | kd (fit header over a trace without response) [3] [s⁻¹] | binding result [4] | Kd [5] [µM] | binding result [6] | KD (fit header over a trace without response) [7] [pM] | Ka (fit header over a trace without response) [7] [M⁻¹ s⁻¹] | kd (fit header over a trace without response) [7] [s⁻¹] | EC50 [8] [µM] |
| --- | --- | --- | --- | --- | --- | --- | --- | --- | --- | --- | --- | --- | --- |
| B1 | 0.0045 | 0.000473 | 549000 | 3050 | 2.78e-08 | 8.5e-11 | no binding | 0.000861 | no binding | 0.846 | 8.23e+06 | 6.97e-06 |  |
| B2 |  |  |  |  |  |  |  |  |  |  |  |  | 0.0014 |
